{"source": "paper PMC11063343", "target": "SARS-CoV-2 S1 spike domain", "assay": "SPR", "settings": "2.5 µM SARS-CoV-2-S1; parent: est. 450; read off a plot"}
{"substance": "cellugyrin N-Term peptide Y6A; K10A; F15A", "values": [{"measurement": "response", "result": 45, "unit": "RU"}]}
